Experiment: yeast display, Sf9 membrane polyspecificity reagent, FACS + sequencing; frameworks hold sequencing errors
How it was run: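 Galactose-induced (36–48 hours) yeast carrying a synthetic nanobody display library were exposed to 10% biotinylated, detergent-solubilized Sf9 membrane reagent at 4 °C for 1 hour. FACS followed streptavidin microbead enrichment, using low and high (top ~1%) gates for expression (anti-HA) and reagent binding (streptavidin). Colony PCR, MiSeq 2 × 250 sequencing and CDR-length filtering followed. Labels for polyreactivity reflect the gate of origin.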

Sequence	polyreactivity (PSR sort gate)
QVQLVESGGGLVQAGGSLRLSCAASGSIFRSYAMGWYRQAPGKERELVAAISRRGGSTYYADSVKGRFTISRDNAKNTVYLQMNSLKPEDTAVYYCAADRTGPYDYWGQGTQVTVSS	high polyreactivity
QVQLVESGGGLVQAGGSLRLSCAASGSTFVDYAMGWYRQAPGKERELVAAISSSGSTNYADSVKGRFTISRDNAKNTVYLQMNSLKPEDTAVYYCNADGNPDFYYSFYDEYDYWGQGTQVTVSS	low polyreactivity
QVQLVESGGGLVQAGGSLRLSCAASGSIFGGYAMGWYRQAPGKERELVATSYADSVKGRFTISRDNAKNTVYLQMNSLKPEDTAVYYCAADPPLEGGHGYNYWGQGTQVTVSS	low polyreactivity
QVQLVESGGGLVRAGGSLRLSWAASGFTFTSYAMGWYRQAPGKERELVAAITVTGGRTYYADSVKGRFTISRDNAKNTVYLQMNSLKPEDTAVYYCATVFSLSSPYWKHYYWGQGTQVTVSS	high polyreactivity
QVQLVESGGGLVQAGGSLRLSCAASGFTFSLYAMGWYRQAPGKERELVAAISRSGGSTYYADSVKGRFTISRDNAKKTVYLQMNSLKPEDTAVYYCNAPYSVSSIRYDYWGQGTQVTVSS	high polyreactivity
QVQLVESGGCLVQAGGSLRLSCAASGSIFSLYAMGWYRQAPGKEWEFVASISRSGGITYYADSVKGRFTISRDNAKNTVYLQMNSLKPEDTAVYYCAAVGWVSYRRYDYWGPGTQVTVSS	high polyreactivity
QVQHVESRGGLVQAGGSLRLSCAASGLIFTCNAMGWYRQAPGKERELVAAISTGGSTSYADSVKGRFTIARDNAKNTVYLQMNSLKPEDTAVYYCARDSSIWSHGSWYDYWGQGTQVTVSS	low polyreactivity
HVRLQESVGGLVQAGGSLRQSCAASGAISPYYDMGWYRLAPGKEREFVASIAHGGTTYYADSVKGRFTTSRDNAKNTVYLQMNSLKPEDTAVYYCAVAYDVWHSHIYRGQGTQVTVSS	high polyreactivity
QFHLVESGGGLVQAGGSLRLSCAATGSIFYTNAMGWYRQPAGTDRELVASIRSRDRTKYADSVKWRFSISRVNAKNTVYLQMNSLKPEDTAVYYCAADRYWYGVHASIYYYWGHGTQVTVSS	high polyreactivity
QVQLVESGGGLVQAGGSLRLTCADSGIIYTYNAMRWYRQAPGKEMEFVATITWSGGSTYYADSVKGRFTISRDNAMNTVYFQMNSLKPEDTAVYYCAVDYSRHGYWSPVYEFNYWGQGTQVTVSS	low polyreactivity
QVQLVESGGGLVQAGGSLRLSCAASGFTFNDYAMGWYRQAPGKERELVAAIDWSGGRTYYADSVKGRFTISRDNAKNTVYLQLNSLKPEDTAVDYCAVEDLSHAYVQHYRYGYGYWGQGTQVTVSS	low polyreactivity
QVQLVESGGGLVQAGGSLRLSCAASGRIFDSNAMGWYRQAPGKERELVATISYRGGRTYYADSVKGRFTISRDNAKNTVYLQMNSLKPEDTAVYYCAVRYWVSGFRAGYYWGQGTQVTVSS	high polyreactivity
QVQLVESGGGLVQAGGSLRLSCAASGFIFYYAMGWYRQAPVKERELVAAISRGGSTNYADSVKGRFTISRDNAKNTVYLQMNSLKPEDTAVYYCNARVYSSRARWGTYDYWGQGTQVTVSS	high polyreactivity
QVQLVESCGGLVHAGGSLRLSCAASGRTCVGNVMGWYRQAPGKERELVAAISRSGGNTYYADSVKGRFTISRDNAKNTVYLLMNSLKPEDTAVYYCAKVGLYGPVEYDYWGQGTQVTVSS	high polyreactivity
QVQLVESGGGLVQAGGSLRLSCAASGFTFRYYAMGWYRQAPGKERELVAAITRNGGSTYYADSVKGRFTISRDNAKHTVYLQMNSLKPEETAVYYCNRYGRQYDFYYWGQGTQVTVSS	high polyreactivity
QVQLVESGGGLVQAGGSLRLSCAASGRIFYSNAMGWYRQAPGKERELVAAITRSGGGTYYADSVKGRFTISRDNAKNTVYLQMNSLKPEDTAVYYCARPAFFRSLSTSDDYWGQGTQVTVSS	high polyreactivity
QVQLVESGGGLVQAGGSLRLSCAASGRILYRYAMGWYRQATGKERELVAAISWSGGSTYYADSVKGRFTISRDNAKNSVYLQMNSLKPEDTAVYYCAARYKRAYSRDYWGQGTQVTVSS	high polyreactivity
QVQLVESGGGLVQAGGSLRLSCAASGNTFLYYGMGWYRQAPGKERELVAAITSGGITYYADSVKGRFTISRDNAKNTVYLQMNSLKPEETAVYFCNKDVGFTRPLYYWGQGTQVTVSS	low polyreactivity
QVQLVESGGGLVQAGGSLRLSCAASGFIFSRYVMGWYRQAPGKERELVAAISSSGGRTYYADSVKGRFTISRDNAKNTVYLQMNCLKPEDTAVYYCAAKPLPGGADTTSPRYDYWGQGTQVTVSS	high polyreactivity
QVLLVESGGGLVQAGGSLRLSCAASGRTFARNTMGWYRQAPGKERELVAGITSTGSTNYADSVKGRFTISRDNAKNTVYLQMNSLKPEDTAVYYCNARRYRPGSQYGYDYWGQGTQVTVSS	high polyreactivity
QVQLVESGGGLVQAGGSLRLSCAASGRIFISNAMGWYRQAPGKERELVAAISWRGTRTYYADSVKGRFTISRENAKNTVYLEMNSLKPEVTAVYYCNADRHRSRGMDYWGQGTQVTVSS	high polyreactivity
QVQLVESGGGLVQAGGSLRLSCAASGSIFNYYAMGWYRQAPGKERELVAGITTSGGSTYYADSVKGRFTISRDNAKNTVYFQMHSLKPEDTAVYYGAAYDYISSTYFLDDYWGQGTQVTVSS	low polyreactivity

Sequence	polyreactivity (PSR sort gate)
QVQLVESVGGLVQAGGSLRISSAASGRIFTGNGMGWYRQAPGKERELVASITYNGGRTYYADSVKGRFTISRDNAKNTVYLQINSLKPEDTSVYYCNAGDYGFRYEYWGQGTQVTVSS	low polyreactivity
QVQLVESGGGLVQAGGSLGLSCAASGFIVGYYTMGWDRQAPGKERELVAAISSSGGRTYDADSVKGRFTISRDKAKNTVYFQMNSLKPEDTAVYYCNADRTLRFGYGYCGQGTQVTVSS	low polyreactivity
QVQLVESGGGLVQAGGSLRLSCAASGFIFDTYAMGWYRQAPGKERELVAAISWTGTDTYYADSVKGRFTISRDNAKNTVYLQMNSLKPEDTAVYYCAARSRYKYSPSGDYWGQGTQVTVSS	high polyreactivity
QVQLLESGGGLVQAGGSRRLSCAASGRTFIFNAMGWYRQAPGKETELVAAISSGGGTNYADSEKGRFTISRDNAKNTVYLQMNSLKPEDTAVYYCARGSYKYRHSYDYWGQGTEVTVSS	low polyreactivity
QVQLVESGGGLVQAGGSLRLSCAASGFTFALYAMGWYRQAPGKEREFVAAITRSGGITYYADSVKGRFTFSRDNAKNTVYLQINSLKPEDTAVYYCAAVPRWSVYRAYGYWGQGTQVTVSS	high polyreactivity
QVQLVESGGGLVQAGGSLRLSCAASGRIFQWYTMGWYRQAPGKERELVATITDGGSTYYADSVKGRFTISRDNAKNTVYLQMNSLKPEDTAVYYCAARKIGSRRLLYPYYIFGYWGQGTQVTVSS	high polyreactivity
QVQLVESGGGLVQAGGSLRLSSADSGRIFYRYMVWYRHAPGKERELVAAISGRATRTYYADSVKGRFTISRDNAKKTVYLQMNSLKPEDTAVYYCAKRSYHGGDYWGQGTQVTVSS	high polyreactivity
QVQLVESGGGLVQAGGSLRLSCAASGFIGIYAMGWYRQAPGKERELVAAITTSGGRTYYADSVKGRFTISRDNAKNTVYLQMNSLKPEDTAVYYCAADYQAYTAEDKVIVWYDYWGQGTQVTVSS	low polyreactivity
QVQLVESGGGLVQAGGSLRLSCAASVSTFEANAMGWYRQAPGKERELVAVITWTGGSTYYADSVKGRFTISRDYAKNNVYLQMNSLKPEDTAVYYCAAKFHRFAWYSHYDYWGQGTQVTVSS	low polyreactivity
QVQLVESGGGLVQAGGSLRLSCAASGSTFYIYAMGWYRQAPGKERELVAAISSVGRTSYADSVKGRFTISRDNAKNTVYLQMNSLKPEDTAVYYCAADKVDDSSYVPRTVFRYESDYWGQGTQVTVSS	low polyreactivity
QVQHVESGGGLVQAGGSLRLSCAASGSIFYYYAMGWYRQAPGKERELVATISSSSGSTYADSVKGRFTISRDNAKNTVYLQMNSLKPEDTAVYYCAKDYWGQGTKVTVSS	low polyreactivity
QVQLVESGGGLVQAGGSLRLSCASSGFTFSRNVMGWYRQAPGKETELVADITLSGASTYYADSVKGRFTISRDNAKNPDYLQMNSLKPEDTAVYYCAADPYHWRWGWRHVYWGQGTQVTVSS	low polyreactivity
QVQLVDSGGGLVQAGGSLRLSCAASGFIFLTYGMGWYRQAPGKERELVATITSVGSTNYADSVKGRFTISRDNAKNTVYLQMNSLKPEDTAVYYCAAVSTYHVEFDFWAEYGYWGQGTQVTVSS	low polyreactivity
QVQLVESVVGLVQAGGSLRLRCAASGIIFSKYAMGWYIQEPGKERELVARISWRGGDTYYADSVKGRFTISRDNAKNTVYLKMNSMKQEDTSVYYFNARIWGRYFSYTRFDYWGQCTQVTVSS	high polyreactivity
QVQLVESGGGLVQAGGSLRLSCAASGRIFPHYTMGWYRQAPGKERELVATISGRGGSTYYADSVKGRFTISRDIAKNTVYLQMNSLKPEDTAVYYCAREGCRRYAGLYYWGQGTQVTVSS	high polyreactivity
QVQLVESGGGLVQAGGSLRLSCAASGSTFYSYAMGWYRQAPGKERELVAAITYSDGDTYYADSVKGRFTISRDNAKNTVYLQMNSLKPEDTAVYYCAAEYQGQPGTGNLEYWGQGTQVTVSS	low polyreactivity
QVQLVESGGGLVQAGGSLRLSCAASGRILWYNAMGWYRQAPGKERELVAAINRGGSTNYADSVKGRFRISRDNAKNTVYLQMNSLKPEDTAVYYCAAVHYRWWYRSAYDYWGQGTQVTVSS	low polyreactivity
QVQLVESGGGLVQAGGSLRLICADSGRIFRYNSRGWYRQAPAKERELVASISTGGSSTYYADSVKGRFTISRDNAKNTVYLQMNSLKPEYSAFYYCAATPYSYSARSYGPIYRYDYWGQGTQVTVSS	high polyreactivity
QVQLVESGVGLVQAGGSLRLSCAASGRIFYNNVRGWYRQAPGKERELVAGISGNGGSTYYPDSVKGRFTISRDNAKNTVYLQMNSPKPEDTAVYYCAARSSFRTLIFYQKFDYWGQGTQVTVSS	low polyreactivity
QVQLVESGGGLVQAGCSLRLSCAASGRSIAYNAMGWYRQAPGTERELVAAISWSGGSTYYADSVKGRFTISRDNAKNTVYLQMNSLIPEDTAVYYCAKRFAQYRYPYDYWGQGKQVTVSS	high polyreactivity
QVQLVESGGGLVQAGGSLRLSCAASGFTFRYNAMGWYRQAPGKERELVAAISRSGGRTYYADSVKGRFTIARDNAKNTVYLQMNSLKPEDTAVYYCAAVAARITGFGYWGQGTQVTVSS	high polyreactivity

Reference: the nanobody polyreactivity screen of Harvey et al. (2022)
